Target: gp41 of HIV-1 NL4.3 viral particles (HIV-1 NL4.3)

Molecule	cytosolic viral p24 (ELISA) in primary CD4+ T cells pretreated with AAT and infected with HIV-1 NL4.3 Gag-iGFP	entry of HIV-1 NL4.3 Gag-iGFP into primary CD4+ T cells pretreated with AAT (0.5 g/L), GFP by flow cytometry, against untreated cells	cytosolic viral p24 (ELISA) in primary CD4+ T cells pretreated with C and infected with HIV-1 NL4.3 Gag-iGFP, against cells pretreated with AAT	entry of HIV-1 NL4.3 Gag-iGFP into primary CD4+ T cells pretreated with C (0.05 g/L), GFP by flow cytometry, against cells pretreated with AAT
alpha-1-antitrypsin (from UniProt P01009 25-418) (natural protein)	> 60 % decrease	> 60 % decrease	–	–
KGTEAAGAMFLEAIPMSIPPEVKFNKPFVFLMIDQNTKSP [synthesized C-terminus fragment of AAT]	–	–	> 50 % decrease	> 50 % decrease

— publication PMC4966588
